Source: the supplement of paper PMC10126150
± gives the standard deviation of the averaged measurements.
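Also: ATP exposure 15 min at 22 °C before imaging.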

The sequences below were run on ATP (assay: switch fluorescence ratio, 500 uM ATP over buffer (Cy3 cluster intensity, sum of 5 cycles each) (fold (ratio)); higher = stronger signal-on switching upon ATP binding; sequences stand for … in TCGTCGGCAGCGTCAGATGTGTATAAGAGACAGTTTTTTTTTTTTTTTTTTTTTTTTT…TC). Settings: aptamer strand: ATP DNA aptamer (quencher-CACCTGGGGGAGTATTGCGGAGGAAGG + anchor), 100 nM annealed; ATP concentration: 500 uM.
In short: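 Cy3-labelled switching-strand clusters on a modified Illumina MiSeq flow-cell were annealed to 100 nM quencher-labelled ATP aptamer and imaged first in selection buffer, then after 15 min with 500 uM ATP at 22 °C. NaOH stripping and re-annealing separated each of five buffer/ATP cycles, and clusters outside 100-1000 RFU were excluded. The fluorescence ratio sums target-cycle Cy3 intensity over buffer-cycle Cy3 intensity per cluster and averages it per switch-domain sequence.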
ACGTTGCTGA gave a switch fluorescence ratio of 1.02 ± 0.028.
For ACGTTGTGAG, the switch fluorescence ratio was 0.969 ± 0.037.
ACGTTTACCA gave a switch fluorescence ratio of 1.217 ± 0.0099.
ACGTTTCCCC was tested, and the switch fluorescence ratio was 1.09 ± 0.025.
ACGTTTTCGG gave a switch fluorescence ratio of 0.9837 ± 0.0052.
Sequence ACGTTTTGAG has a switch fluorescence ratio of 1.0122 ± 0.00047.
For ACTAAAAGGC, the switch fluorescence ratio was 1.0107 ± 3.2e-05.
For ACTAAATAGT, the switch fluorescence ratio was 0.987 ± 0.013.
ACTAAGGATT was tested, and the switch fluorescence ratio was 1.02 ± 0.018.
With ACTAAGGGCG the switch fluorescence ratio was 1.09 ± 0.019.
ACTAAGGGGA showed a switch fluorescence ratio of 1.03 ± 0.0058.
In the case of ACTAATAAGA, the switch fluorescence ratio is reported as 1.01 ± 0.019.
For ACTAATAAGG, the switch fluorescence ratio was 1.04 ± 0.029.
Work on ACTAATGCGC yielded a switch fluorescence ratio of 1.05 ± 0.019.
In the case of ACTAGAACAT, the switch fluorescence ratio is reported as 1.052 ± 0.0042.
ACTAGGAAAA was tested, and the switch fluorescence ratio was 0.997 ± 0.011.
For ACTAGGGACA, the switch fluorescence ratio was 1.24 ± 0.028.
ACTAGGGGAC gave a switch fluorescence ratio of 1.06 ± 0.085.
Sequence ACTAGGGGTT has a switch fluorescence ratio of 1.23 ± 0.34.
With ACTAGGTGCG the switch fluorescence ratio was 1.06 ± 0.045.
Sequence ACTAGTTTTC has a switch fluorescence ratio of 0.9611 ± 0.0091.
Sequence ACTATAAGAA has a switch fluorescence ratio of 1.03 ± 0.014.
In the case of ACTATAGGAC, the switch fluorescence ratio is reported as 1.07 ± 0.017.
ACTATATTTT showed a switch fluorescence ratio of 1.04 ± 0.0067.
In the case of ACTATCGGCA, the switch fluorescence ratio is reported as 1.02 ± 0.029.
With ACTATCTTTG the switch fluorescence ratio was 0.9924 ± 0.0098.
Sequence ACTATGACGT has a switch fluorescence ratio of 1.04 ± 0.017.
ACTATGAGTT showed a switch fluorescence ratio of 0.9975 ± 0.0073.
For ACTATTCGT, the switch fluorescence ratio was 0.99 ± 0.026.
For ACTATTTGTT, the switch fluorescence ratio was 1.04 ± 0.027.
ACTCAATCTG gave a switch fluorescence ratio of 1.0397 ± 0.00024.
For ACTCAGGAGT, the switch fluorescence ratio was 1.011 ± 0.0031.
Work on ACTCCAGGAG yielded a switch fluorescence ratio of 1.06 ± 0.025.
With ACTCGAGGTT the switch fluorescence ratio was 1.05 ± 0.013.
Work on ACTCGGGGAG yielded a switch fluorescence ratio of 1 ± 0.013.
With ACTCGGTTGG the switch fluorescence ratio was 1.03 ± 0.037.
Sequence ACTCGTAACT has a switch fluorescence ratio of 0.9931 ± 0.0057.
With ACTCGTTAAA the switch fluorescence ratio was 0.978 ± 0.014.
Work on ACTCGTTGTT yielded a switch fluorescence ratio of 1.02 ± 0.024.
Work on ACTCTACCGT yielded a switch fluorescence ratio of 1.29 ± 0.057.
Work on ACTCTAGTTT yielded a switch fluorescence ratio of 1.048 ± 0.0027.
ACTCTTATAA showed a switch fluorescence ratio of 1.048 ± 0.0059.
Work on ACTGAAGCAT yielded a switch fluorescence ratio of 1.17 ± 0.021.
Sequence ACTGACTCA has a switch fluorescence ratio of 1.23 ± 0.048.
For ACTGAGGATG, the switch fluorescence ratio was 1.06 ± 0.0063.
In the case of ACTGAGTTTA, the switch fluorescence ratio is reported as 1.02 ± 0.019.
Work on ACTGATGACG yielded a switch fluorescence ratio of 1.06 ± 0.078.
For ACTGATGGAC, the switch fluorescence ratio was 1.06 ± 0.027.
With ACTGATGGGT the switch fluorescence ratio was 1 ± 0.013.
For ACTGATTTAT, the switch fluorescence ratio was 1.01 ± 0.028.
In the case of ACTGCAAAAT, the switch fluorescence ratio is reported as 1.127 ± 0.0017.
In the case of ACTGCTACGA, the switch fluorescence ratio is reported as 1.36 ± 0.018.
ACTGGACACA gave a switch fluorescence ratio of 1.22 ± 0.069.
ACTGGAGGAT showed a switch fluorescence ratio of 1.05 ± 0.013.
ACTGGCAGTT was tested, and the switch fluorescence ratio was 1.01 ± 0.037.
ACTGGCTGTT was tested, and the switch fluorescence ratio was 1.03 ± 0.035.
Work on ACTGGGATGG yielded a switch fluorescence ratio of 1.031 ± 0.0089.
Sequence ACTGGTATTG has a switch fluorescence ratio of 1.02 ± 0.025.
ACTGGTTAGT showed a switch fluorescence ratio of 1 ± 0.045.
Sequence ACTGGTTTAG has a switch fluorescence ratio of 0.9975 ± 0.0095.
Work on ACTGGTTTGG yielded a switch fluorescence ratio of 1.04 ± 0.063.
In the case of ACTGGTTTTT, the switch fluorescence ratio is reported as 0.987 ± 0.036.
Sequence ACTGTACCCT has a switch fluorescence ratio of 1.22 ± 0.016.
ACTGTCATTA was tested, and the switch fluorescence ratio was 1.08 ± 0.019.
Work on ACTGTCGTCT yielded a switch fluorescence ratio of 1.0405 ± 0.00033.
ACTGTGTACC showed a switch fluorescence ratio of 1.04 ± 0.015.
ACTGTGTGGC showed a switch fluorescence ratio of 0.992 ± 0.012.
For ACTGTTAGCA, the switch fluorescence ratio was 1.061 ± 0.0046.
In the case of ACTGTTCCGA, the switch fluorescence ratio is reported as 1.05 ± 0.054.
ACTGTTTCTC gave a switch fluorescence ratio of 0.996 ± 0.022.
Work on ACTGTTTTAT yielded a switch fluorescence ratio of 1.01 ± 0.038.
For ACTTAAAATG, the switch fluorescence ratio was 1.06 ± 0.082.
Sequence ACTTAGAATA has a switch fluorescence ratio of 1.032 ± 0.0033.
ACTTAGTCTA showed a switch fluorescence ratio of 1.023 ± 0.0066.
ACTTATAGGA gave a switch fluorescence ratio of 1.03 ± 0.012.
Work on ACTTATGGGA yielded a switch fluorescence ratio of 1.02 ± 0.019.
ACTTCAGATT showed a switch fluorescence ratio of 0.995 ± 0.012.
Work on ACTTCGAATA yielded a switch fluorescence ratio of 1.36 ± 0.07.
With ACTTCTAGGC the switch fluorescence ratio was 1.02 ± 0.058.
With ACTTCTGGCT the switch fluorescence ratio was 0.9717 ± 0.0054.
With ACTTGATACG the switch fluorescence ratio was 1.08 ± 0.063.
With ACTTGCGCAG the switch fluorescence ratio was 1.05 ± 0.043.
With ACTTGGACTG the switch fluorescence ratio was 1.03 ± 0.042.
For ACTTGGCAAT, the switch fluorescence ratio was 4.347 ± 0.014.
For ACTTGGGGGG, the switch fluorescence ratio was 0.994 ± 0.012.
ACTTGGTAT was tested, and the switch fluorescence ratio was 1 ± 0.07.
ACTTGTAGTA was tested, and the switch fluorescence ratio was 1.01 ± 0.012.
ACTTGTGGTC was tested, and the switch fluorescence ratio was 0.9952 ± 0.0084.
With ACTTGTTCGT the switch fluorescence ratio was 1.006 ± 0.0075.
ACTTTAGTTC gave a switch fluorescence ratio of 1.01 ± 0.036.
In the case of ACTTTATCTA, the switch fluorescence ratio is reported as 1.03 ± 0.061.
Sequence ACTTTATGCT has a switch fluorescence ratio of 1.01 ± 0.024.
With ACTTTCTCAG the switch fluorescence ratio was 1.077 ± 0.0049.
Sequence ACTTTGAA has a switch fluorescence ratio of 1.01 ± 0.037.
In the case of ACTTTGAGTG, the switch fluorescence ratio is reported as 0.976 ± 0.015.
ACTTTGGGCA showed a switch fluorescence ratio of 0.99606 ± 0.00098.
For ACTTTGGGGG, the switch fluorescence ratio was 1.01 ± 0.042.
Work on ACTTTGGTCT yielded a switch fluorescence ratio of 1.04 ± 0.051.
For ACTTTGTCGG, the switch fluorescence ratio was 0.995 ± 0.038.
ACTTTTAAGG showed a switch fluorescence ratio of 0.983 ± 0.024.
ACTTTTAGGT gave a switch fluorescence ratio of 1.0193 ± 0.00024.
For ACTTTTCGGC, the switch fluorescence ratio was 0.9915 ± 0.0073.
ACTTTTCGGG was tested, and the switch fluorescence ratio was 0.9921 ± 0.0056.
For ACTTTTGAAA, the switch fluorescence ratio was 0.994 ± 0.014.
With ACTTTTGGGG the switch fluorescence ratio was 1.005 ± 0.0023.
For ACTTTTGGGT, the switch fluorescence ratio was 0.9602 ± 0.0088.
ACTTTTTAGT showed a switch fluorescence ratio of 0.986 ± 0.05.
ACTTTTTATA showed a switch fluorescence ratio of 0.968 ± 0.082.
For ACTTTTTGGG, the switch fluorescence ratio was 1.01 ± 0.065.
Sequence ACTTTTTTAG has a switch fluorescence ratio of 0.992 ± 0.019.
ACTTTTTTAT showed a switch fluorescence ratio of 1.01 ± 0.018.
For AGAAAAAAAG, the switch fluorescence ratio was 1.02 ± 0.03.
AGAAAAAAGC showed a switch fluorescence ratio of 0.989 ± 0.015.
Sequence AGAAAAGGTG has a switch fluorescence ratio of 1.19 ± 0.13.
With AGAAAAGTAC the switch fluorescence ratio was 1.08 ± 0.076.
Sequence AGAAAAGTGG has a switch fluorescence ratio of 0.985 ± 0.019.
AGAAAAGTGT gave a switch fluorescence ratio of 1.0276 ± 0.00047.
AGAAACCGTA gave a switch fluorescence ratio of 1.1 ± 0.031.
AGAAACCGTT showed a switch fluorescence ratio of 1.03 ± 0.021.
AGAAACGGGG gave a switch fluorescence ratio of 1.08 ± 0.15.
With AGAAAGGTTG the switch fluorescence ratio was 0.984 ± 0.019.
AGAAATGAAT showed a switch fluorescence ratio of 1.04 ± 0.024.
With AGAAATTATA the switch fluorescence ratio was 1.001 ± 0.0073.
AGAAATTGGT showed a switch fluorescence ratio of 1.02 ± 0.029.
AGAAATTGTT showed a switch fluorescence ratio of 0.999 ± 0.047.
With AGAACTGGTT the switch fluorescence ratio was 0.961 ± 0.034.
With AGAAGAAGGG the switch fluorescence ratio was 1.03 ± 0.017.
For AGAAGAATTT, the switch fluorescence ratio was 1.02 ± 0.016.
Work on AGAAGATCAG yielded a switch fluorescence ratio of 1.02 ± 0.015.
AGAAGATCTA was tested, and the switch fluorescence ratio was 0.9942 ± 0.0081.
AGAAGCCCAC showed a switch fluorescence ratio of 1.09 ± 0.019.
Work on AGAAGCGTGG yielded a switch fluorescence ratio of 1.01 ± 0.025.
AGAAGGCAAC showed a switch fluorescence ratio of 1.015 ± 0.0017.
AGAAGGCTAG gave a switch fluorescence ratio of 1.02 ± 0.05.
AGAAGGGCA gave a switch fluorescence ratio of 0.983 ± 0.042.
For AGAAGGTGCC, the switch fluorescence ratio was 1.05 ± 0.049.
With AGAAGTACTA the switch fluorescence ratio was 1.22 ± 0.036.
With AGAAGTGGCG the switch fluorescence ratio was 1.01 ± 0.03.
Sequence AGAAGTTTTG has a switch fluorescence ratio of 1.04 ± 0.054.
With AGAATATTAA the switch fluorescence ratio was 0.978 ± 0.013.
Sequence AGAATATTTT has a switch fluorescence ratio of 0.963 ± 0.011.
In the case of AGAATGGGAA, the switch fluorescence ratio is reported as 1 ± 0.019.
AGAATGGGGA was tested, and the switch fluorescence ratio was 1.02 ± 0.0092.
AGAATGTTTT gave a switch fluorescence ratio of 0.989 ± 0.033.
Sequence AGAATTAACT has a switch fluorescence ratio of 0.998 ± 0.025.
AGAATTATAT showed a switch fluorescence ratio of 0.973 ± 0.023.
Work on AGAATTGGGT yielded a switch fluorescence ratio of 0.9964 ± 0.0014.
AGACACGAAT was tested, and the switch fluorescence ratio was 0.9811 ± 0.0068.
In the case of AGACAGGGGT, the switch fluorescence ratio is reported as 1.07 ± 0.098.
Work on AGACAGGTAA yielded a switch fluorescence ratio of 1.01 ± 0.02.
AGACATATTT showed a switch fluorescence ratio of 1 ± 0.027.
In the case of AGACATCTTT, the switch fluorescence ratio is reported as 1.016 ± 0.0062.
AGACATGTTT gave a switch fluorescence ratio of 0.981 ± 0.014.
